Measured values reported in the nanobody polyreactivity screen of Harvey et al. (2022).

assay: yeast display, Sf9 membrane polyspecificity reagent, FACS + sequencing; frameworks hold sequencing errors
Summary of the method: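 In a synthetic yeast display library (Saccharomyces cerevisiae BJ5465), nanobody expression was induced with galactose for 36–48 hours. FACS gates were set low and high (top ~1%) using anti-HA fluorescence for expression and streptavidin fluorescence for binding of the Sf9 membrane reagent. Each polyreactivity label is drawn from the gate of origin.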

Sequence | polyreactivity (PSR sort gate)
QVQLVESGGGLVQAGGSLRLSCAASGRIFKYYAMGWYRQAPGKERELVARISSRGGSTNYADSVKGRFTISRDNAKNTVYLQMNSLKPEDTAVYYCAAQYQNFPYGYWGQGTQVTVSS | high polyreactivity
QVQLVESGGGLVQAGGSLRLSCAASGRIFKYYAMGWYRQPPGKERELVAAISRSSGRTYYADSVKGRCTISRDNAKNTVYFQMIRLKPEDTAVYYCNALPSTVYLTYDYWGLGTQVTVSS | high polyreactivity
QVQLVESGGGLVQAGGSLRLSCAASGRIFLANAMGWSRQAPGKERELVAAISLSGGRTYYADSVKGRFTISRDNAKNTVYLQMNSLKPEDTAVYYCAAEFYPIRYYGGYDYWGQGTLVTVSS | low polyreactivity
QVQLVESGGGLVQAGGSLRLSCAASGRIFLFYAMGGYRQAPGKERELVAAISSTDDTYYADSVKGRFTISRDNAKNTVYLQMNSLKPEDTAVYYCAAYSIISQSEMYYWGQGTQVTVSS | low polyreactivity
QVQLVESGGGLVQAGGSLRLSCAASGRIFLGNAMGWYRQAPGKERELVAAIDASGGSTYYADSVKGRFTISRDNAKNTVYLQMNSLKPVDTAVYYCNAEPRYYSGGHGYDYWGQGTQVTVSS | low polyreactivity
QVQLVESGGGLVQAGGSLRLSCAASGRIFLGNVMGWYRQAPGKERELVAAISKSGGTTYYADSVKGRFTISRDNAKNTVYLQMNSLKPEDTAVYYCAAYGSWRTYHYYYWGQGTQVTVSS | high polyreactivity
QVQLVESGGGLVQAGGSLRLSCAASGRIFLGNVMGWYRQAPGKERELVAAISSGGSTNYADSVKGRFTISRDNAKNTVYLQMNSLIPEDTAVYYCAAYFVRDWKLYYYWGQGTQVTVSS | low polyreactivity
QVQLVESGGGLVQAGGSLRLSCAASGRIFLGYAKGWYRQAPGKERELVAAINRSGSSTYYADSVKGRFTISRDIAKNTVYLQMNSLKPEHSAVYYCNARSGNRYGPRYDYWVQGTQVTVSS | high polyreactivity
QVQLVESGGGLVQAGGSLRLSCAASGRIFLGYAMGWYRQAPGKERELVAAISRSGGRTYYADSVKGRFTISRDNAKNTVYLQMNRLKPEDTAVYYCAARALYPLGYDYWGQGTQVTVSS | high polyreactivity
QVQLVESGGGLVQAGGSLRLSCAASGRIFLINAMGWSRQAPGKERELDATISRSGASTDYADSVKGRFTISRDNAKNTVYLQMNSLKPEDTAVYYCNAKVYKRRVVPYDYWGQGTQVTVSS | high polyreactivity
QVQLVESGGGLVQAGGSLRLSCAASGRIFLKNAMGWYRQAPGKERELVAVISRGGSTYYADSVKGRFTISRDNAKNTVYLQMNSLKPEDTAVYYCAAPYNVIFGGLDYWGQGTQVTVSS | high polyreactivity
QVQLVESGGGLVQAGGSLRLSCAASGRIFLLNAMGWSRQAPGKERELVAAIDIIGGSTYYADSVKGRFTISRDNAKNTVYLQMNSLKPEDTAVFYCAAEADFWRFVEYDYWGQGTQVTVSS | low polyreactivity
QVQLVESGGGLVQAGGSLRLSCAASGRIFLLNAMGWYRQAPGKERELVARISSGRTYYADSVKGRFTISRDNAKNTVYLQMNSLKPEDTAVYYCNATVSSSKYRYFYVNPYDYWGQGTQVTVSS | low polyreactivity
QVQLVESGGGLVQAGGSLRLSCAASGRIFLPNAMGWYRQAPGKEREFVASISWSGGSTYYADSVKGRFTISRDNAKNTVYLQMNSLNPEDTAVYYCAAQSPAYYSKSYWGQGTQVTVSS | low polyreactivity
QVQLVESGGGLVQAGGSLRLSCAASGRIFLPYAMGWYRHAPGKERELVAAISRTGDRTYYADSVKGRFTISRDNAKNTVYLHMNSLKPEDTAVYYCNTSLPPTVIRYHLRYPRYDHWGQGTQVTVSS | low polyreactivity
QVQLVESGGGLVQAGGSLRLSCAASGRIFLRNAMGWYRQAPGKERELVATITSRGGSTYYADAVKGRFTISRDNAKNTVYLQMNSLKPVDTEVYDCAADPRRYRGFGYVYGGFYYWGQGTQVTVSS | low polyreactivity
QVQLVESGGGLVQAGGSLRLSCAASGRIFLRNDMGWYRQAPGKERELVAGISSDGSTYYADSVKGRFTISRDNAKNTVYLQMNSLKPEDTAVDYCARYGTDHRLGYGYWGQGTQVTVSS | low polyreactivity
QVQLVESGGGLVQAGGSLRLSCAASGRIFLSNALGWYSQAPGKERELVAALSWTGGSTYYADSVTGRFTISRDNAKNTVYLQMNSLKPEDTAVYYCAASTVGQTYSYYVDTYDYWGQGTQVTVSS | low polyreactivity
QVQLVESGGGLVQAGGSLRLSCAASGRIFLVYVMGWYRQAPGKERELVADITFSGGSTYYADSVKGRFTISRDNAKNTVYLQMNSLKPEDTAVYYCAARKPRSGGPFDYWGQGTQVTVSS | high polyreactivity
QVQLVESGGGLVQAGGSLRLSCAASGRIFLWYAMGWYRQAPGKERELVAAISSNGGSTRYADSVKGRFTISRDNAKNTVYLQMNSLKPVDNAVYYCNADVHWNRYPYGGNGYGYWGQGTQVTVSS | low polyreactivity
QVQLVESGGGLVQAGGSLRLSCAASGRIFLWYAMGWYRQAPGKERELVAANSSNGGSTRYADSVKGRFTISRDNAKNTVYLQMNSLKPEDTAVYYCNADVHWNRYPYGGNGYGYWGQGTQVTVSS | low polyreactivity
QVQLVESGGGLVQAGGSLRLSCAASGRIFLWYTMGWYRQAPGKERELVASITRGGTTNYADSVKGRFTISRDNAKNTVYLQMNSLKPEDTAVYYFNVAYTWCQSTTSWYDIHYYWGQGSQVTVSS | high polyreactivity

Sequence | polyreactivity (PSR sort gate)
QVQLVESGGGLVQAGGSLRLSCAASGRIFLYNAMGWYRQAPGKERELVAAISYNSGRTYYADSVKGRFTISRDNAKNTVYLQMNSLKPEDTAVYYCAAVSYPAVYGFDYWGQVTQVTVSS | high polyreactivity
QVQLVESGGGLVQAGGSLRLSCAASGRIFLYYAMGWYRQAPGKERELVAAIDSSGGNTNYADSVKGRFTISRDNAKNTVYFQMNSLKPEDTAVYYCAADFYVSADRWPNYDYWGQGTQVTVSS | low polyreactivity
QVQLVESGGGLVQAGGSLRLSCAASGRIFLYYAMGWYRQAPGKERELVAAITSDGSTNYADSVKGRFTISRDNAKNTVYLQMNSLKPEDTAVYYCARRIQTYHYHYDYWGQGTQVTVSS | low polyreactivity
QVQLVESGGGLVQAGGSLRLSCAASGRIFLYYTMGWYRQAPGKERELVAAITRSGGSTYYADSVKGRFTISRDNAKNTVYLQMISLKPEDTAVYYGADRYWERYRAFNYWGQGTQVTVSS | high polyreactivity
QVQLVESGGGLVQAGGSLRLSCAASGRIFNANAKGWYRQAPWKERELVAAITYSGGSTYYADSVKGRFTISRDNAKNTVYLQKNSLKPEDTAVYYCNVDYAGPYDYWGQGTQVTVSS | low polyreactivity
QVQLVESGGGLVQAGGSLRLSCAASGRIFNDYAMGWYRQAPGKERELVAVIRRSGVSTYYADSVKGRFTISRDNAKNTVYLQMNSLKPEDTAVYYCAADIRSNRLYDGGYWGQGTQVTVSS | low polyreactivity
QVQLVESGGGLVQAGGSLRLSCAASGRIFNFYAMGWYRQAPGKERELVASITSDGSTKYADSVKGRFTISRDNAKNTVYLKMNSLKPEDTAVFYCATDTWGSYYDDDDYWGQGTQVTVSS | high polyreactivity
QVQLVESGGGLVQAGGSLRLSCAASGRIFNGNAMVWYRQAPGKERELVASINVRGGRTYYADSVKGRFTISRDNAKNTVYLQMNSLKPEDTAVYYWYADYAWYQRKSTVDYDYWGQVTQVTVSS | low polyreactivity
QVQLVESGGGLVQAGGSLRLSCAASGRIFNGNDMGWYRQAPGKERELVAAISYSGGSTYYADSVKGRFTISRDNAKNTVYLQMNSLKPEDTAVYYCAALTIRVGSLGRDYWVQGTQVTVSS | low polyreactivity
QVQLVESGGGLVQAGGSLRLSCAASGRIFNLYAMGWYRPAPGKESELVAAISGSGGRTSYADSVKGRFTISRDNAKNTVYLQMNSLKPEDTAVYYCAADYSFYTSFRYDYWGQGTQVTVSS | low polyreactivity
QVQLVESGGGLVQAGGSLRLSCAASGRIFNPYAMGWYRQAPGKEREFVAAIRWSSGSTSYADSVKGRFTISRDNAKNTVYLQMNSLKPEDTAVYYCNTRSHSYYTLWGASRPRFDYWGQGTQVTVSS | high polyreactivity
QVQLVESGGGLVQAGGSLRLSCAASGRIFNQYAMGWYIQAPGKERELVAAISRRGGSTYYADSVKGRFTISRDNAKNTVYLQMNSLKPEDTAVYYCAAVGGYASYFHLYYYWGQGTQVTVSS | high polyreactivity
QVQLVESGGGLVQAGGSLRLSCAASGRIFNRNAMGWYRQAPGKERELVAAISRSGDNTYYADSVKGRFTISRDNAKNTVYLQMNSLKPEDTAVYYCAKDGSLDAQSYDYDYWGQGTQVTVSS | low polyreactivity
QVQLVESGGGLVQAGGSLRLSCAASGRIFNTYAMGWYRQAPGKERELVAAITSSGGSTYYADSVKGRFTISRDNAKNTVYFQMNSLKPEDTAVYYCNAGSLHRRYYYEGDYWGQGTQVTVSS | high polyreactivity
QVQLVESGGGLVQAGGSLRLSCAASGRIFNVYAMGWYRQAPGKERELVAAITYSGGSTYYADSVKVRITISRDNAKNSVYLQMIFLKPEDTAVYYCNARSSKRSSRGYDYWGQGTQVTVSS | high polyreactivity
QVQLVESGGGLVQAGGSLRLSCAASGRIFNWYRMGWYRQAPGKERELVAAISRGGGRTYYADSVKGRFTISRDNAKNTVYLQMNSLKPEDTAVYYCNAVDASHAGPVGGAFRYDYWGQGTQVTVSS | high polyreactivity
QVQLVESGGGLVQAGGSLRLSCAASGRIFNYNTMGWYRQAPGKERELVAAINFSGDRTYYADSVKGRFTISRDISKNTVYLQMNSLKPEDTAVYYCAAQGYWYGYQPGNYWGQGTQVTVSS | high polyreactivity
QVQLVESGGGLVQAGGSLRLSCAASGRIFNYYAMGWYRQAPGKEREFVAAITSGGGSTYYADSVKGRFTISRDNAKNNVYLQMNSLKPEDTAVYYCNARLQSQVDAIGYGYWGQGTQVTVSS | high polyreactivity
QVQLVESGGGLVQAGGSLRLSCAASGRIFNYYAMGWYRQAPGKERELVAAISSGGSTYYADSVKGRFTISRDNAKNTVYLQMNSLKPEDTAVYYCAAAYGDYGYWGQGTQVTVSS | high polyreactivity
QVQLVESGGGLVQAGGSLRLSCAASGRIFNYYAMGWYRQAPGKERELVAVISRTGVRTHYADSVKGRFTISRDIAKNTVYLQMNRLKPEDTAVDYCNADSYVFRYDYWGQGSQVTVSS | high polyreactivity
QVQLVESGGGLVQAGGSLRLSCAASGRIFNYYAMGWYRQAPGTERELVAAISTDGGSTYYADSVKGRFTISRDNAKNSVYLQMNSLKPEDTAVYYCAAYQYYDFSYSYDYWGQGTQVTVSS | low polyreactivity
